In PMC6402988 (Nature structural & molecular biology, 2019):
Where a chain is given by its changes, count along the chain named.

Key:
[1] = biological target: T1, cleaved Ebola virus glycoprotein (EBOV GPCL) (Zaire ebolavirus, Mayinga-76); assay: BLI
T1 chain 1: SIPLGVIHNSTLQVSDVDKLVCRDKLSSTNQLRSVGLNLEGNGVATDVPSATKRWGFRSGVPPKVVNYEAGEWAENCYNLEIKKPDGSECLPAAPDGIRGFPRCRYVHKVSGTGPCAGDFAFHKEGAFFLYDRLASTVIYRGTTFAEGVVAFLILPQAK
T1 chain 2: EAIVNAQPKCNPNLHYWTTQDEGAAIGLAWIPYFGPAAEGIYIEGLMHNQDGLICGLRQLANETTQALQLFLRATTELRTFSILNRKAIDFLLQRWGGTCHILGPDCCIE

[2] = biological target: T1, cleaved Ebola virus glycoprotein (EBOV …); assay: cell-based or functional assay
SUDV GP ectodomain = SUDV GP ectodomain (Sudan ebolavirus; strain not named for …, UniProt Q66814); assay: cell-based or functional assay

B1: ADI-15946 IgG (antibody, V domains shown)
VH: EVQLVESGGGLVKPGGSLRLSCAASGFTFSNAWMSWVRQAPGKGLEWVGRIKSKTDGGTIDYAAPVKGRFTISRDDSKNTVYLQMTSLKTEDTAVYYCTTYTEDMRYFDWLLRGGETFDYWGQGTLVTVSS
VL: DIRLTQSPSSLSASVGDRVTITCRASHYISTYLNWYQQKPGKAPKLLIYAASNLQSGVPSRFSGSGFGTDFSLTISSLQPEDFATYHCQQSYSTPGRYTFGQGTKVEIK
fold improvement in binding (KDapp) against full-length GP [1]: 10000 fold
fold increased kon against EBOV GPFL [1]: 10 fold
fold slower koff against EBOV GPFL [1]: > 1000 fold
neutralization potency against rVSV-EBOV GPCL compared to rVSV-EBOV GPFL [2]: 100 fold

B2: 46M2 (antibody, V domains shown)
VH: B1 VH with R106A
VL: B1 VL with S65Y
fold improvement in neutralization of authentic SUDV against parental ADI-15946 (SUDV GP ectodomain): 33 fold

B3: 46M3 (antibody, V domains shown)
VH: B1 VH with R106A
VL: B1 VL with S65Y, F67Y
fold improvement in neutralization of authentic SUDV against parental ADI-15946 (SUDV GP ectodomain): 33 fold

B4: ADI-15946 LC^WT:HC^IGL (antibody, V domains shown)
VH: not shown
VL: B1 VL
binding result [1]: binds
